Experimental findings from doi:10.1101/2024.01.29.577677 are described below.

The target in this experiment is human ACE2 (human) (UniProt Q9BYF1). The experiment is described as follows: SPR.
For BA.2.86-P486F RBD (domain or fragment), the fold increase in affinity relative to BA.2.86 RBD was found to be 3 fold.
BA.2.86-H445V RBD (domain or fragment) showed a fold increase in affinity relative to BA.2.86 RBD of 3 fold.
BA.2.86-D450N RBD (domain or fragment) returned a fold increase in affinity relative to BA.2.86 RBD of 3 fold.
